Reference: the RNAGym collection of RNA variant scans (doi:10.7554/elife.80360)

B1: CPEB3 Ribozyme (parent)
chain: GGGGGCCACAGCAGAAGCGUUCACGUCGCGGCCCCUGUCAGAUUCUGGUGAAUCUGCGAAUUCUGCUGU

Variants of: B1
Experiment: self-cleavage, relative activity (ratio to wild type); higher = more cleavage; co-transcriptional

| Variant | self-cleavage |
| --- | --- |
| G11U U69G | 0.968 |
| G11U U69A | 0.958 |
| G11U C57G | 0.204 |
| G11U C57A | 0.31 |
| G11U C57U | 0.215 |
| G11U C29U | 0.142 |
| G11U C29A | 0.202 |
| G11U C29G | 0.149 |
| G11U G68C | 0.943 |
| G11U G68U | 0.856 |
| G11U U53C | 0.329 |
| G11U U53G | 0.487 |
| G11U C32U | 0.854 |
| G11U C32G | 0.295 |
| G11U G37C | 0.213 |
| G11U G37U | 0.165 |
| G11U G37A | 0.145 |
| C12A C34A | 0.448 |
| C12A C34G | 0.495 |
| G11U G14C | 0.161 |
| G11U G14U | 0.144 |
| G11U G28C | 0.116 |
| G11U G28U | 0.192 |
| C12A C24A | 0.236 |

| Variant | self-cleavage |
| --- | --- |
| C12A C24U | 0.302 |
| C12A C24G | 0.138 |
| C12A C18U | 0.143 |
| C12A C18G | 0.113 |
| G11U U38C | 0.756 |
| G11U G48C | 0.878 |
| C12A G41U | 0.286 |
| C12A G41C | 0.191 |
| C12A A60G | 0.372 |
| C12A A60U | 0.257 |
| G11U U26C | 0.712 |
| G11U U26A | 0.552 |
| G11U U20A | 0.119 |
| G11U U20C | 0.131 |
| G11U U20G | 0.121 |
| G11U U21A | 0.895 |
| G11U G19U | 0.118 |
| G11U G19C | 0.135 |
| G11U G19A | 0.115 |
| C12A G30U | 0.212 |
| C12A G30A | 0.322 |
| G11U C66G | 0.949 |
| G11U C66A | 0.918 |
| G11U C66U | 0.955 |

| Variant | self-cleavage |
| --- | --- |
| C12A C32A | 0.402 |
| C12A C32U | 0.79 |
| C12A C32G | 0.118 |
| G11U G56U | 0.404 |
| G11U G56A | 0.701 |
| G11U G56C | 0.367 |
| C12A A15C | 0.274 |
| C12A A15G | 0.514 |
| C12A A15U | 0.106 |
| G11U G25A | 0.141 |
| G11U G25U | 0.136 |
| C12A A13C | 0.199 |
| C12A A13G | 0.735 |
| C12A A51G | 0.805 |
| G11U U62G | 0.381 |
| G11U U62C | 0.365 |
| G11U U62A | 0.38 |
| C12A C22G | 0.129 |
| C12A C22A | 0.144 |
| C12A C22U | 0.111 |
| G11U C27G | 0.134 |
| G11U C27U | 0.148 |
| G11U C27A | 0.16 |
| C12A C63G | 0.354 |

| Variant | self-cleavage |
| --- | --- |
| C12A C29G | 0.105 |
| C12A C29U | 0.135 |
| C12A A52C | 0.571 |
| C12A A52G | 0.788 |
| C12A A52U | 0.603 |
| G11U C33G | 0.619 |
| G11U C33A | 0.765 |
| C12A C45G | 0.614 |
| C12A C45A | 0.579 |
| C12A G17U | 0.0724 |
| C12A G17A | 0.187 |
| C12A G17C | 0.139 |
| G11U C34U | 0.915 |
| G11U C34G | 0.635 |
| C12A C35U | 0.624 |
| C12A C35A | 0.149 |
| G11U U67G | 0.949 |
| G11U U67C | 0.96 |
| G11U U67A | 0.913 |
| G11U U55G | 0.225 |
| C12A A16G | 0.385 |
| C12A A16C | 0.128 |
| C12A A59G | 0.653 |
| C12A A59C | 0.347 |

| Variant | self-cleavage |
| --- | --- |
| C12A A59U | 0.343 |
| C12A G19C | 0.125 |
| C12A C54G | 0.392 |
| C12A C54A | 0.311 |
| C12A C39U | 0.355 |
| C12A C39A | 0.228 |
| C12A C39G | 0.346 |
| G11U G65C | 0.574 |
| G11U G65U | 0.68 |
| G11U C35G | 0.341 |
| G11U C35U | 0.815 |
| C12A G47A | 0.875 |
| G11U U44G | 0.734 |
| G11U U44C | 0.539 |
| G11U U44A | 0.677 |
| G11U U43G | 0.302 |
| G11U U43A | 0.392 |
| G11U U46G | 0.901 |
| G11U U46C | 0.79 |
| G11U U46A | 0.864 |
| G11U G58C | 0.857 |
| G11U G58U | 0.891 |
| G11U G58A | 0.846 |
| G11U C39A | 0.36 |

| Variant | self-cleavage |
| --- | --- |
| G11U C39U | 0.527 |
| G11U C39G | 0.536 |
| G11U C45A | 0.732 |
| G11U C45U | 0.893 |
| G11U G47C | 0.954 |
| G11U G47A | 0.897 |
| C12A G25C | 0.127 |
| C12A G28U | 0.141 |
| C12A G28C | 0.164 |
| G11U U64A | 0.467 |
| C12A C33G | 0.395 |
| C12A C33A | 0.553 |
| G11U G30A | 0.589 |
| G11U G30C | 0.455 |
| G11U C63U | 0.498 |
| G11U C63G | 0.231 |
| C12A C27A | 0.145 |
| C12A C27U | 0.117 |
| G11U U36C | 0.59 |
| G11U U36G | 0.167 |
| C12A C57U | 0.317 |
| C12A C57G | 0.212 |
| C12A C57A | 0.172 |
| G11U G17C | 0.129 |

| Variant | self-cleavage |
| --- | --- |
| G11U G17A | 0.141 |
| G11U G17U | 0.148 |
| G11U G31U | 0.499 |
| G11U G31C | 0.138 |
| C12A A42G | 0.41 |
| C12A A42C | 0.413 |
| G11U U49G | 0.98 |
| G11U U49C | 0.847 |
| G11U U49A | 0.941 |
| C12A A40G | 0.437 |
| C12A A40U | 0.218 |
| C12A A40C | 0.209 |
| C12A G14C | 0.126 |
| G11U G41A | 0.217 |
| G11U G41U | 0.359 |
| G11U U61A | 0.412 |
| G11U U61G | 0.348 |
| C12A C66G | 0.561 |
| C12A C66A | 0.686 |
| C12A A23U | 0.742 |
| C12A A23G | 0.42 |
| G11U G50C | 0.797 |
| G11U G50U | 0.916 |
